T1: p19 (Carnation Italian ringspot virus (CIRV), UniProt Q66104 1-172)
T1 sequence: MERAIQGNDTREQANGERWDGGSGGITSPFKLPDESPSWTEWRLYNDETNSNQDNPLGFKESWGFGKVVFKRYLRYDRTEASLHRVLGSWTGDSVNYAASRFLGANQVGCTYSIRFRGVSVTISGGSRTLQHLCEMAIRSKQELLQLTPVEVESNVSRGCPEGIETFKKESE

T2: 2b (Tomato aspermy virus (TAV), UniProt Q8UYT3 1-95)
T2 sequence: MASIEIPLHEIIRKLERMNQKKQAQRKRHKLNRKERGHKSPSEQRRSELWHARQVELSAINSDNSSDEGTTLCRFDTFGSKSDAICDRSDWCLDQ

B1: NbmiR403a (dsRNA)
RNA 1: UUAGAUUCACGCACAAACUCG
RNA 2: UGUUUGUGCGUGAAUCUGACA
modifications: 5' phosphate on both strands
B2: gf698 siRNA (dsRNA)
RNA 1: UAGUUCAUCCAUGCCAUGUGU
RNA 2: ACAUGGCAUGGAUGAACUAUA
modifications: 5' phosphate on both strands
B3: AtmiR403 (dsRNA)
RNA 1: UUAGAUUCACGCACAAACUCG
RNA 2: UGUUUUGUGCUUGAAUCUAAUU
modifications: 5' phosphate on both strands
B4: NbmiR162a (Table 1 name) (dsRNA)
RNA 1: UCGAUAAACCUCUGCAUCCAG
RNA 2: GGAGGCAGCGGUUUAUCGAUC
modifications: 5' phosphate on both strands
B5: AtmiR168b (dsRNA)
RNA 1: UCGCUUGGUGCAGGUCGGGAA
RNA 2: CCCGUCUUGUAUCAACUGAAU
modifications: 5' phosphate on both strands
B6: NbmiR168a,b,c (dsRNA)
RNA 1: UCGCUUGGUGCAGGUCGGGAC
RNA 2: CCCGCCUUGCAUCAACUGAAU
modifications: 5' phosphate on both strands
B7: Carnation Italian ringspot virus (CIRV) p19 protein (natural protein)
chain: MERAIQGNDTREQANGERWDGGSGGITSPFKLPDESPSWTEWRLYNDETNSNQDNPLGFKESWGFGKVVFKRYLRYDRTEASLHRVLGSWTGDSVNYAASRFLGANQVGCTYSIRFRGVSVTISGGSRTLQHLCEMAIRSKQELLQLTPVEVESNVSRGCPEGIETFKKESE
notes: p19 viral suppressor of RNA silencing of Carnation Italian ringspot virus (CIRV); the p19 open reading frame cloned into pGEX-6P-1; theoretical mass of the monomer 19.479 kDa; GST removed with PreScission protease; also called Tombusvirus p19; source: E. coli BL21(DE3) RIPL, purified (GSTrap, PreScission cleavage, Resource Q anion exchange)
B8: AtmiR162 (= NbmiR162b per Table 1) (dsRNA)
RNA 1: UCGAUAAACCUCUGCAUCCAG
RNA 2: GGAGGCAGCGGUUCAUCGAUC
modifications: 5' phosphate on both strands
B9: AtmiR168a (= NbmiR168d,e) (dsRNA)
RNA 1: UCGCUUGGUGCAGGUCGGGAA
RNA 2: CCCGCCUUGCAUCAACUGAAU
modifications: 5' phosphate on both strands
B10: NbmiR403b (dsRNA)
RNA 1: UUAGAUUCACGCACAAACUCG
RNA 2: UGUUUGUGCGUGAUUCUGACA
modifications: 5' phosphate on both strands

Experiments:
p19 [1] = target: T1, p19; test: EMSA; details: protein: recombinant, tags: GST (pGEX-6P-1) removed by PreScission protease, chain copies: 2
2b [2] = target: T2, 2b; test: EMSA; details: protein: recombinant, tags: His-SUMO removed by SUMO protease, chain copies: 2
2b [3] = target: T2, 2b; test: competition EMSA; KC vs labeled gf698 siRNA, 1.9 nM 2b monomer; details: protein: recombinant, tags: His-SUMO removed by SUMO protease, chain copies: 2
p19 [4] = target: T1, p19; test: competition EMSA; KC vs labeled gf698 siRNA, 0.5 nM p19 dimer; details: protein: recombinant, tags: GST (pGEX-6P-1) removed by PreScission protease, chain copies: 2
[5] = target: the molecule itself; test: AUC; sedimentation equilibrium (18,000 rpm) and velocity (40,000 rpm), 20°C, CIRV p19 at 1.2 to 13 µM in buffer D; no RNA
[6] = miRNA duplex with mismatches, 3' overhangs
[7] = miRNA duplex with mismatches, 22 nt star strand
[8] = label: 5'-32P, miRNA duplex with mismatches, 3' overhangs

| Binder | Kd (p19 [1]; [6]) [nM] | Kd (2b [2]; [6]) [nM] | Ki (2b [3]; [6]) [nM] | Kd (p19 [1]; [8]) [nM] | also measured |
| --- | --- | --- | --- | --- | --- |
| B1 | 0.11 ± 0.02 | 0.22 ± 0.03 | 0.01 ± 0.006 | – | – |
| B2 | – | – | – | – | Kd (p19 [1]; 2 nt 3' overhangs): 0.06 ± 0.04 nM; Kd (2b [2]; 2 nt 3' overhangs): 0.68 ± 0.15 nM; Ki (p19 [4]; 2 nt 3' overhangs): 0.07 ± 0.03 nM; Ki (2b [3]; 2 nt 3' overhangs): 0.53 ± 0.08 nM |
| B3 | – | – | – | – | Kd (p19 [1]; [7]): 1.37 ± 0.29 nM; Kd (2b [2]; [7]): 0.26 ± 0.03 nM; Ki (p19 [4]; [7]): 1.09 ± 0.43 nM; Ki (2b [3]; [7]): 0.05 ± 0.004 nM |
| B4 | – | – | – | 0.14 ± 0.05 | – |
| B5 | – | – | – | 4.83 ± 1.57 | – |
| B6 | – | – | – | 6.57 ± 1.5 | – |
| B7 | – | – | – | – | stoichiometry N [5]: 2 |
| B8 | 0.07 ± 0.03 | 0.46 ± 0.06 | 0.67 ± 0.09 | – | Ki (p19 [4]; [6]): 0.12 ± 0.05 nM |
| B9 | 2.29 ± 0.78 | 1.24 ± 0.15 | 12.1 ± 0.7 | – | Ki (p19 [4]; [6]): 1.59 ± 0.35 nM |
| B10 | 0.37 ± 0.06 | 0.26 ± 0.03 | 0.02 ± 0.003 | – | – |

— PMC5915741, “A Viral Suppressor Modulates the Plant Immune Response Early in Infection by Regulating MicroRNA Activity” (mBio, 2018)
